From patent US20260284189A1, “TREATMENT OF NON-SMALL CELL LUNG CANCER” (ASTRAZENECA AB, priority 2023, published 2026)
Where “and” joins values, the source holds several entries; their conditions need not be identical. Identical values can stand only once.

Test: AEGEAN phase III: adverse events in the safety analysis set (CTCAE v5.0)
Details: for COVID-19: number of patients with event / COVID-19: patients with event: grouped term; for Any immune-mediated event: number of patients / Any immune-mediated event: patients: immune-mediated AE
[1] = all-causality, safety analysis set N = 400
[2] = any cause, Any Grade, safety analysis set N = 400
[3] = any cause, Any Grade, safety analysis set N = 400, listed as durvalumab
[4] = any cause, Max. Grade 3 or 4, safety analysis set N = 400
[5] = immune-mediated AE (grouped term), Any Grade 3 or 4, safety analysis set N = 400
[6] = immune-mediated AE (grouped term), Any Grade, safety analysis set N = 400
[7] = Any Grade 3 or 4, safety analysis set N = 400
[8] = Any Grade, safety analysis set N = 400
[9] = overall study period, safety analysis set N = 400
[10] = overall study period, safety analysis set N = 400, listed as durvalumab
[11] = possibly related to study treatment, Any Grade, safety analysis set N = 400
[12] = possibly related to study treatment, Max. Grade 3 or 4, safety analysis set N = 400

Description: Safety was monitored throughout the study and adverse events (AEs) were graded using the National Cancer Institute Common Toxicity Criteria for AEs version 5.0.

Durvalumab: antibody that selectively binds PD-L1 and blocks binding of PD-L1 to PD-1 and CD80; arm given with platinum-based chemotherapy before surgery
Adverse events leading to cancellation of surgery: number of patients [1]: 7 | Adverse events leading to cancellation of surgery: patients [1]: (1.8) % | Adverse events leading to discontinuation of durvalumab/placebo: number of patients [1]: 48 | Adverse events leading to discontinuation of durvalumab/placebo: patients [1]: (12.0) % | COVID-19: number of patients with event [2]: 44 | COVID-19: patients with event [2]: (11.0) % | Alopecia: number of patients with event [2]: 68 | Alopecia: patients with event [2]: (17.0) % | Anemia: number of patients with event [2]: 136 | Anemia: patients with event [2]: (34.0) % | Asthenia: number of patients with event [2]: 50 | Asthenia: patients with event [2]: (12.5) % | Constipation: number of patients with event [2]: 99 | Constipation: patients with event [2]: (24.8) % | Decreased appetite: number of patients with event [2]: 73 | Decreased appetite: patients with event [2]: (18.3) % | Diarrhea: number of patients with event [2]: 52 | Diarrhea: patients with event [2]: (13.0) % | Fatigue: number of patients with event [2]: 52 | Fatigue: patients with event [2]: (13.0) % | Insomnia: number of patients with event [2]: 41 | Insomnia: patients with event [2]: (10.3) % | Nausea: number of patients with event [2]: 101 | Nausea: patients with event [2]: (25.3) % | Neutropenia: number of patients with event [2]: 68 | Neutropenia: patients with event [2]: (17.0) % | Neutrophil count decreased: number of patients with event [2]: 64 | Neutrophil count decreased: patients with event [2]: (16.0) % | Procedural pain: number of patients with event [2]: 44 | Procedural pain: patients with event [2]: (11.0) % | Pruritis: number of patients with event [2]: 47 | Pruritis: patients with event [2]: (11.8) % | Rash: number of patients with event [2]: 56 | Rash: patients with event [2]: (14.0) % | Vomiting: number of patients with event [2]: 45 | Vomiting: patients with event [2]: (11.3) % | Pruritis: patients with event [3]: 11.8% | Rash: patients with event [3]: 14% | COVID-19: number of patients with event [4]: 1 | COVID-19: patients with event [4]: (0.3) % | Alopecia: number of patients with event [4]: 0 | Anemia: number of patients with event [4]: 26 | Anemia: patients with event [4]: (6.5) % | Asthenia: number of patients with event [4]: 0 | Constipation: number of patients with event [4]: 1 | Constipation: patients with event [4]: (0.3) % | Decreased appetite: number of patients with event [4]: 1 | Decreased appetite: patients with event [4]: (0.3) % | Diarrhea: number of patients with event [4]: 3 | Diarrhea: patients with event [4]: (0.8) % | Fatigue: number of patients with event [4]: 0 | Insomnia: number of patients with event [4]: 0 | Nausea: number of patients with event [4]: 1 | Nausea: patients with event [4]: (0.3) % | Neutropenia: number of patients with event [4]: 36 | Neutropenia: patients with event [4]: (9.0) % | Neutrophil count decreased: number of patients with event [4]: 39 | Neutrophil count decreased: patients with event [4]: (9.8) % | Procedural pain: number of patients with event [4]: 1 | Procedural pain: patients with event [4]: (0.3) % | Pruritis: number of patients with event [4]: 1 | Pruritis: patients with event [4]: (0.3) % | Rash: number of patients with event [4]: 2 | Rash: patients with event [4]: (0.5) % | Vomiting: number of patients with event [4]: 3 | Vomiting: patients with event [4]: (0.8) % | COVID-19 events of max. grade 5: number of patients (any cause, assessed as unrelated to study treatment, safety analysis set, listed as D): 5 | Decreased appetite with an outcome of death (max. grade 5): number of patients (any cause, safety analysis set, listed as D): 1 | Dermatitis/Rash: number of patients [5]: 2 | Dermatitis/Rash: patients [5]: (0.5) % | Diarrhea/Colitis: number of patients [5]: 0 | Hepatic events: number of patients [5]: 8 | Hepatic events: patients [5]: (2.0) % | Hyperthyroid events: number of patients [5]: 0 | Hypothyroid events: number of patients [5]: 0 | Pneumonitis: number of patients [5]: 5 | Pneumonitis: patients [5]: (1.2) % | Dermatitis/Rash: number of patients [6]: 22 | Dermatitis/Rash: patients [6]: (5.5) % | Diarrhea/Colitis: number of patients [6]: 3 | Diarrhea/Colitis: patients [6]: (0.7) % | Hepatic events: number of patients [6]: 13 | Hepatic events: patients [6]: (3.2) % | Hyperthyroid events: number of patients [6]: 7 | Hyperthyroid events: patients [6]: (1.7) % | Hypothyroid events: number of patients [6]: 37 | Hypothyroid events: patients [6]: (9.2) % | Pneumonitis: number of patients [6]: 15 | Pneumonitis: patients [6]: (3.7) % | Pneumonitis: patients (immune-mediated AE (grouped term), Any Grade, safety analysis set N = 400, listed as durvalumab): 3.7% | Any immune-mediated event: number of patients [7]: 17 | Any immune-mediated event: patients [7]: (4.2) % | Any immune-mediated event: patients (Any Grade 3 or 4, safety analysis set N = 400, listed as durvalumab): 4.2% | Any immune-mediated event: number of patients [8]: 95 | Any immune-mediated event: patients [8]: (23.7) % | Any immune-mediated event: patients (Any Grade, safety analysis set N = 400, listed as durvalumab): 23.7% and 23.5% | All-causality adverse events with outcome of death: number of patients [9]: 23 | All-causality adverse events with outcome of death: patients [9]: (5.8) % | All-causality adverse events, maximum grade 3 or 4: number of patients [9]: 169 | All-causality adverse events, maximum grade 3 or 4: patients [9]: (42.3) % | All-causality serious adverse events: number of patients [9]: 150 | All-causality serious adverse events: patients [9]: (37.5) % | Any-grade adverse events possibly related to durvalumab/placebo/chemotherapy: number of patients [9]: 346 | Any-grade adverse events possibly related to durvalumab/placebo/chemotherapy: patients [9]: (86.5) % | Any-grade all-causality adverse events: number of patients [9]: 386 | Any-grade all-causality adverse events: patients [9]: (96.5) % | Possibly related adverse events with outcome of death: number of patients [9]: 7 | Possibly related adverse events with outcome of death: patients [9]: (1.8) % | Possibly related adverse events, maximum grade 3 or 4: number of patients [9]: 129 | Possibly related adverse events, maximum grade 3 or 4: patients [9]: (32.3) % | All-causality adverse events, maximum grade 3 or 4: patients [10]: 42.3% | Any-grade adverse events possibly related to durvalumab/placebo/chemotherapy: patients [10]: 86.5% | Any-grade all-causality adverse events: patients [10]: 96.5% | Possibly related adverse events with outcome of death: patients [10]: 1.8% | Possibly related adverse events, maximum grade 3 or 4: patients [10]: 32.3% | Alanine aminotransferase increased: number of patients with event [11]: 30 | Alanine aminotransferase increased: patients with event [11]: (7.5) % | Alopecia: number of patients with event [11]: 66 | Alopecia: patients with event [11]: (16.5) % | Anemia: number of patients with event [11]: 104 | Anemia: patients with event [11]: (26.0) % | Arthralgia: number of patients with event [11]: 21 | Arthralgia: patients with event [11]: (5.3) % | Asthenia: number of patients with event [11]: 34 | Asthenia: patients with event [11]: (8.5) % | Constipation: number of patients with event [11]: 44 | Constipation: patients with event [11]: (11.0) % | Decreased appetite: number of patients with event [11]: 49 | Decreased appetite: patients with event [11]: (12.3) % | Diarrhea: number of patients with event [11]: 34 | Diarrhea: patients with event [11]: (8.5) % | Fatigue: number of patients with event [11]: 42 | Fatigue: patients with event [11]: (10.5) % | Hypothyroidism: number of patients with event [11]: 37 | Hypothyroidism: patients with event [11]: (9.3) % | Leukopenia: number of patients with event [11]: 33 | Leukopenia: patients with event [11]: (8.3) % | Nausea: number of patients with event [11]: 84 | Nausea: patients with event [11]: (21.0) % | Neutropenia: number of patients with event [11]: 60 | Neutropenia: patients with event [11]: (15.0) % | Neutrophil count decreased: number of patients with event [11]: 61 | Neutrophil count decreased: patients with event [11]: (15.3) % | Platelet count decreased: number of patients with event [11]: 29 | Platelet count decreased: patients with event [11]: (7.3) % | Pruritis: number of patients with event [11]: 33 | Pruritis: patients with event [11]: (8.3) % | Rash: number of patients with event [11]: 37 | Rash: patients with event [11]: (9.3) % | Thrombocytopenia: number of patients with event [11]: 24 | Thrombocytopenia: patients with event [11]: (6.0) % | Vomiting: number of patients with event [11]: 31 | Vomiting: patients with event [11]: (7.8) % | White blood cell count decreased: number of patients with event [11]: 25 | White blood cell count decreased: patients with event [11]: (6.3) % | Alanine aminotransferase increased: number of patients with event [12]: 2 | Alanine aminotransferase increased: patients with event [12]: (0.5) % | Alopecia: number of patients with event [12]: 0 | Anemia: number of patients with event [12]: 17 | Anemia: patients with event [12]: (4.3) % | Arthralgia: number of patients with event [12]: 1 | Arthralgia: patients with event [12]: (0.3) % | Asthenia: number of patients with event [12]: 0 | Constipation: number of patients with event [12]: 0 | Decreased appetite: number of patients with event [12]: 0 | Diarrhea: number of patients with event [12]: 3 | Diarrhea: patients with event [12]: (0.8) % | Fatigue: number of patients with event [12]: 0 | Hypothyroidism: number of patients with event [12]: 0 | Leukopenia: number of patients with event [12]: 9 | Leukopenia: patients with event [12]: (2.3) % | Nausea: number of patients with event [12]: 1 | Nausea: patients with event [12]: (0.3) % | Neutropenia: number of patients with event [12]: 36 | Neutropenia: patients with event [12]: (9.0) % | Neutrophil count decreased: number of patients with event [12]: 38 | Neutrophil count decreased: patients with event [12]: (9.5) % | Platelet count decreased: number of patients with event [12]: 7 | Platelet count decreased: patients with event [12]: (1.8) % | Pruritis: number of patients with event [12]: 1 | Pruritis: patients with event [12]: (0.3) % | Rash: number of patients with event [12]: 2 | Rash: patients with event [12]: (0.5) % | Thrombocytopenia: number of patients with event [12]: 6 | Thrombocytopenia: patients with event [12]: (1.5) % | Vomiting: number of patients with event [12]: 3 | Vomiting: patients with event [12]: (0.8) % | White blood cell count decreased: number of patients with event [12]: 8 | White blood cell count decreased: patients with event [12]: (2.0) %
